# According to publication PMC9410543:
# Molecular target: GLuc1-ALIX (UniProt Q8WUM4)
# Assay: protein-fragment complementation assay (split Gaussia luciferase, GLuc2 bait / GLuc1 prey)
# Conditions: parent: est. 7.4; read off a plot
# GLuc1-ALIX, sequence (Q8WUM4 whole entry, the tested form may be a part): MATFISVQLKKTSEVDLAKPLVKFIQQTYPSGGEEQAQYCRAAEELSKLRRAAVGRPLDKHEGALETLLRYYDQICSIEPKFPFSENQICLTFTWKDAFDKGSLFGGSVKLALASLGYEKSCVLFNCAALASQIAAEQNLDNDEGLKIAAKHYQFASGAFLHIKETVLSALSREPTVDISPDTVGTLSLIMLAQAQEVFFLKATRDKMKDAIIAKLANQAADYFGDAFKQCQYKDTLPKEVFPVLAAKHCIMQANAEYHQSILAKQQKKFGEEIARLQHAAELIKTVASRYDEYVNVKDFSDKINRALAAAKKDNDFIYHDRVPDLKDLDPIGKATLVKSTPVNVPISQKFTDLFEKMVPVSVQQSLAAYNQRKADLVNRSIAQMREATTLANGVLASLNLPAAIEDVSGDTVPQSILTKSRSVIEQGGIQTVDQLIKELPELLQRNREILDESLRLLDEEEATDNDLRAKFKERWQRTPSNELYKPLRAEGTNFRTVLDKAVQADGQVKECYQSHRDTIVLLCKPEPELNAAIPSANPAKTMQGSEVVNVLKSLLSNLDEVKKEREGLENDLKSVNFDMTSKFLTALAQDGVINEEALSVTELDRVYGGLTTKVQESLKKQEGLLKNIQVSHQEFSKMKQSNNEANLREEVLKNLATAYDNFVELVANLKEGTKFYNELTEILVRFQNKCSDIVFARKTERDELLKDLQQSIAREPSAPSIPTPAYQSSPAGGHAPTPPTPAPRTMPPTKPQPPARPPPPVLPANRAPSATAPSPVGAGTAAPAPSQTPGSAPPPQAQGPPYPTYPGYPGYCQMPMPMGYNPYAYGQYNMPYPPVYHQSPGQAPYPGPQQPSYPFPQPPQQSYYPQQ
substance,measurement,value
GLuc2-pX Y800A; K801A; E802A; L803A,response (Log2 normalized LU),1.5
